Test results as given in patent publication US20260217845A1 (published 2026).
Each block holds one binder with its values, some of them ahead of it.

How the values were obtained:
[1] = target: T1, human TNFR2 (extracellular domain) (UniProt P20333 23-257); experiment: SPR
T1 chain: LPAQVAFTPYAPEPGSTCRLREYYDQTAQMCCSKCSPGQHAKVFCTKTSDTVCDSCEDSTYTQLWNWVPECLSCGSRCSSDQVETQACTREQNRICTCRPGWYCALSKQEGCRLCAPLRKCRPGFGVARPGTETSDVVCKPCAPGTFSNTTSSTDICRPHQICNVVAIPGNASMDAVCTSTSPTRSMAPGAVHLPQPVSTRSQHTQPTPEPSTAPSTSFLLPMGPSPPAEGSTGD

[2] = target: T1, human TNFR2 (extracellular domain); experiment: binding affinity
[3] = target: T1, human TNFR2 (extracellular domain); experiment: SPR
[4] = target: T1, human TNFR2 (extracellular domain); experiment: SPR
[5] = target: T1, human TNFR2 (extracellular domain); experiment: binding affinity; marked * on sheet
[6] = target: T1, human TNFR2 (extracellular domain); experiment: SPR
[7] = target: T1, human TNFR2 (extracellular domain); experiment: SPR

- Kd [1]: 19 nM
- Kd [2]: 19 nM
B1: ODY-31D6 (VHH)
VHH: EVQLVESGGGLVQAGGSLRLSCAASGSIVSTNGMGWHRQVPGKGRELVAGIRSDGFTNYADSVKGRFTISSDNVKNTVYLQMNSLKAEDSGVYFCYYQALSSPNYGQTFWGQGTQVTVSS

- Kd [2]: 5.6 nM
- Kd [7]: 5.6 nM
B5: ODY-33D4 (VHH)
VHH: EVQLVESGGGLVQAGGSLRLSCAASGRTFSDYGMGWFRQAPGKDSEFVAAINWSNGRTNYADSVKGRFTISRDNAKNTGYLEMNSLKVEDTAVYYCAATPSGKAYSYWGQGTQVTVSS

The next lines start with the binder.

B2: ODY-31G3 (VHH)
VHH: EVQLVESGGGLVQAGGSLRVSCAASGSIFRADAMGWHRQVPGKPREFVAGIRSDGFTNYAEAVKGRFTISWDTVKNTVYLQMNSLKPEDTAVYTCYYQSLSSPNYGQVFWGQGTQVTVSS
- Kd [3]: 7.9 nM
- Kd [2]: 7.9 nM

B3: ODY-37C7 (VHH)
VHH: EVQLVESGGGLVQPGGSLRLSCAASGFTFDDIAMTWVRQAPGKGLEWVSSIYSYGPNTYYADSVKGRFTISTDSAKNTLYLQMNSLKPEDTAVYYCAADSDLSTVVVGPHDYWGQGTQVTVSS
- Kd [4]: 13 nM
- Kd [2]: 13 nM

B4: ODY-35A10 (VHH)
VHH: EVQLVESGGGLVEAGGSLRLSCAASGRTFGSYTMGWFRQAPGREQEFLASIRRTGGSTSYADSVKGRFTISRDNAKKAVYLQMNSLKPEDTAVYYCAAAPTGRAFTYWGQGTQVTVSS
- Kd [5]: 48 nM
- Kd [6]: 48 nM
